Here are results for one molecule from US20050053993A1, “Uses of an endothelial cell receptor” (priority 2002, published 2005).

The assay addresses T1, GRP78 (bovine brain) (Bos taurus, UniProt Q0VCX2).
T1 construct: from tissue; host or cells: bovine brain
The experiment in a line: Ultracentrifugation binding of I125rK5(dog) with GRP78. Conditions: 1 nM I125rK5(dog) + 1.5 nM GRP78; peptides 100 nM, rK5 1 nM. The protocol: Ultra centrifugation with 50,000 MW cut off filters was used with iodinated recombinant dog K5 (I^125rKS(dog)) and GRP78 (bovine brain). The GRP78 and I^125rK5 (dog) were incubated for 1 hour at room temperature. The solution was then transferred to ultracentrifuges and spun at 10,000×g for 2 min. The top chamber contained GRP78 (mw 78,000) and I^125rK5 (dog) that bound. The top and bottom solutions were counted for I125. Column A: 1 nM I^125rK5(dog). Column B: 1 nM I^125rK5 (dog)+1.5 nM GRP78. Column C: 1 nM I^125rK5(dog)+1.5 nM GRP78+100 nM N-terminal K5 peptide, LLPDVETPSEED. Column D: 1 nM I^125rK5(dog)+1.5 nM GRP78±100 nM active site K5 peptide PRKLYDY. Column E: 1 nM I^125rK5(dog)+1.5 nM GRP78+1 nM rK5 (unlabeled). The GRP78 bound to the labeled rK5 causing its retention on the top of the filter.

T1 sequence (Q0VCX2 20-655): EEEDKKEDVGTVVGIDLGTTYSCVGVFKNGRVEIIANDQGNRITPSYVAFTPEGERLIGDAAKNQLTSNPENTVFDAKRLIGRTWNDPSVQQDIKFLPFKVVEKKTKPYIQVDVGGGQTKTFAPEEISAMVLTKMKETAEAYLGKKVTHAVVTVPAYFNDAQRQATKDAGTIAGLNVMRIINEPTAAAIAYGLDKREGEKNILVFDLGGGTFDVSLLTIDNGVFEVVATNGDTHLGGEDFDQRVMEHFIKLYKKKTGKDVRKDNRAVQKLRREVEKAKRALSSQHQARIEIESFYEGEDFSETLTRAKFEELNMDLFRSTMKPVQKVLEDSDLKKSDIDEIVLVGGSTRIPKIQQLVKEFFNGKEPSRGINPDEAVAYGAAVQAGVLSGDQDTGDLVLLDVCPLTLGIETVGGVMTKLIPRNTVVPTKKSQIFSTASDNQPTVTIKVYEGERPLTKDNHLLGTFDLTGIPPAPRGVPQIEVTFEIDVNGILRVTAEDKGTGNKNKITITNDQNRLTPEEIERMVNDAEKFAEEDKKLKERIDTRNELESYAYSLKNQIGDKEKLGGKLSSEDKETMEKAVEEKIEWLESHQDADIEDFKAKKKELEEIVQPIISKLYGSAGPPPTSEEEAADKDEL

B1: rK5: recombinant kringle 5 fragment of human plasminogen (residues 450-543), expressed in E. coli or yeast (protein)
chain: LLPDVETPSEEDCMFGNGKGYRGKRATTVTGTPCQDWAAQEPHRHSIFTPETNPRAGLEKNYCRNPDGDVGGPWCYTTNPRKLYDYCDVPQCAA
Turning to B1, the “inhibition of I125rK5(dog) binding to GRP78” value was “inhibited”.
